Reference: IntAct's records for PubMed 10393177

B1: Stress-activated protein kinase jnk-1 (Caenorhabditis elegans), Q8WQG9 (parent)
chain: MEERLSTTSSYPSHPGRSVEEDHNTLLASSSISSIIRGTRGHLNNFIESVGNWLVPSSSGRDDDAVSLDSCQSVYSPVRHHINSGTGGGILMEPSSIHVPENYYSVTIGEAQMVVLKRYQNLRLIGSGAQGIVCSAFDTVRNEQVAIKKLSRPFQNVTHAKRAYRELKLMSLVNHKNIIGILNCFTPQKKLDEFNDLYIVMELMDANLCQVIQMDLDHERLSYLLYQMLCGIRHLHSAGIIHRDLKPSNIVVRSDCTLKILDFGLARTAIEAFMMTPYVVTRYYRAPEVILGMGYKENVDVWSIGCIFGELIRGRVLFPGGDHIDQWTRIIEQLGTPDRSFLERLQPTVRNYVENRPRYQATPFEVLFSDNMFPMTADSSRLTGAQARDLLSRMLVIDPERRISVDDALRHPYVNVWFDEIEVYAPPPLPYDHNMDVEQNVDSWREHIFRELTDYARTHDIYS

Variants of: B1
Details: with jun_human JUN

Row | effect of a mutation on the interaction | Variant
1 | disrupting interaction | K148R
